In US20230331823A1 (HENRY M JACKSON FOUNDATION FOR THE ADVANCEMENT OF MILITARY …, published 2023):
Like-named read-outs stand apart in the source and are kept apart here.

Assays:
[1] = target: SARS-CoV-2 RBD (pCoV08, RBD-His6) (SARS-CoV-2 (Wuhan-Hu-1), UniProt P0DTC2 331-527); assay: Table 1, column Specificity
[2] = target: T1, SARS-CoV-2 WA-1 Spike on pseudovirions (SARS-CoV-2, UniProt P0DTC2 14-1255); assay: cell-based or functional assay
[3] = target: T1, SARS-CoV-2 WA-1 Spike on pseudovirions; assay: cell-based or functional assay; remark: listed apart in the source
SARS-CoV-2 NTD WA-1 = target: T2, SARS-CoV-2 NTD WA-1 (SARS-CoV-2, UniProt P0DTC2 14-303); assay: BLI, ShAb-Fc on AHC probe, NTD analyte
T2 construct: domain: NTD

| Binder | binding result [1] | pseudovirus neutralization IC50 [2] | pseudovirus neutralization IC80 [2] | pseudovirus neutralization IC50 [3] | Kd (SARS-CoV-2 NTD WA-1) | koff (SARS-CoV-2 NTD WA-1) | kon (SARS-CoV-2 NTD WA-1) |
| --- | --- | --- | --- | --- | --- | --- | --- |
| ShAb31 (MoB5-1D4) single domain VNAR (VNAR) VNAR: ARVDQTPQTITKETGESLTINCVLRDSNCGVASTDWYRKKSGSTNEESISKGGRYVETVNSRSKSFSLRINDLTVEDSGTYRCNAWDRWETRQLNCDYDVYGGGTVVTVN | binds |  |  |  |  |  |  |
| ShAb02-Foldon (ShAb02 VNAR-KESlinker-Foldon-3c-His8-Strep) (VNAR) VNAR: ARVDQTPQTITKETGESLTINCVLRDSNCALASTDWYRKKSGSTNEESISKGGRYVETVNSGSKSFSLRINDLTVEDSGTYRCNAWDSWETRQLKCDYDVYGGGTVVTVNK |  | 0.289 µg/mL | 1.77 µg/mL | < 0.02 µg/mL |  |  |  |
| ShAb01H06K (ShAb01Hole-06Knob) (bispecific antibody, V domains shown) V domain 1: ARVDQTPRSVTKETGESLTINCVLRDSNCALSSTHWYRKKSGSTNEERILQGRRYVETVNSGSKSFSLRINDLRVEDSGTYRCKVYWGNSWQDKFCPGLGSYEYGDGTAVTVNS V domain 2: ARVDQTPRSVTKETGESLTINCVLRDASYALGSTCWYRKKSGSTNEESISKGGRYVETVNSGSKSFSLRINDLTVEDGGTYRCGVGRGLGVGCDYPLCSYSYAACGDGTAVTVNS |  | 0.065 µg/mL | 0.763 µg/mL |  | 104 nM |  |  |
| ShAb06H02K (ShAb06Hole-02Knob) (bispecific antibody, V domains shown) V domain 1: ARVDQTPRSVTKETGESLTINCVLRDASYALGSTCWYRKKSGSTNEESISKGGRYVETVNSGSKSFSLRINDLTVEDGGTYRCGVGRGLGVGCDYPLCSYSYAACGDGTAVTVNS V domain 2: ARVDQTPQTITKETGESLTINCVLRDSNCALASTDWYRKKSGSTNEESISKGGRYVETVNSGSKSFSLRINDLTVEDSGTYRCNAWDSWETRQLKCDYDVYGGGTVVTVNS |  | 0.03 µg/mL | 0.206 µg/mL |  | 74.6 nM | 0.0085 s⁻¹ | 114000 M⁻¹ s⁻¹ |
| ShAb01-Foldon (ShAb01 VNAR-KESlinker-Foldon-3c-His8-Strep) (VNAR) VNAR: ARVDQTPRSVTKETGESLTINCVLRDSNCALSSTHWYRKKSGSTNEERILQGRRYVETVNSGSKSFSLRINDLRVEDSGTYRCKVYWGNSWQDKFCPGLGSYEYGDGTAVTVNK |  | 0.309 µg/mL | 0.488 µg/mL | 0.31 µg/mL |  |  |  |
